Assay results from patent US20240139265A1 (published 2024).

Target: T1, HLA-B*08:01 class I complex (biotinylated heavy chain with beta2-microglobulin) (human)
T1 construct: Conditional HLA class I complex loaded with a UV-labile peptide that is exchanged for the test peptide
Assay: UV peptide exchange + HLA class I ELISA; % of Pos control peptide
Description: The exchange efficiency between the peptide of interest and Pos was analyzed using an HLA class I ELISA.
The UV control represented UV-irradiation of conditional HLA class I complex in the absence of a rescue peptide. […] The HLA class I ELISA is an enzyme immunoassay based on the detection of beta2-microglobulin (B2M) of (peptide-stabilized) HLA class I complexes. To this end streptavidin was bound onto polystyrene microtiter wells. […] Non-bound material was removed by washing. Subsequently, horseradish peroxidase (HRP)-conjugated antibody to human B2M was added. […] In the latter case B2M was removed during the washing step. After removal of non-bound HRP conjugate by washing, a substrate solution was added to the wells. A coloured product formed in proportion to the amount of intact HLA complex present in the samples. After the reaction was terminated by the addition of a stop solution, absorbance was measured in a microtiter plate reader.

Binder: LLERNSFEV (Synthetic 9-mer) [P73 9-mer neoantigen peptide LLERNSFEV (TP53 (G266E) missense)]
- exchange rate with Pos peptide: 2.6%

Binder: IVWWCPMSR (Synthetic 9-mer) [P98 9-mer neoantigen peptide IVWWCPMSR (TP53 (R213D) frameshift)]
- exchange rate with Pos peptide: 2.4%

Binder: FFKRAAEGF (Synthetic 9-mer) [P77 9-mer neoantigen peptide FFKRAAEGF (AR-V3 splice variant)]
- exchange rate with Pos peptide: 3.4%

Binder: FLFLLLPLS (Synthetic 9-mer) [P87 9-mer neoantigen peptide FLFLLLPLS (AR-Intron splice variant)]
- exchange rate with Pos peptide: 3.1%

Binder: YLRRQKRLK (Synthetic 9-mer) [P60 9-mer neoantigen peptide YLRRQKRLK (FOXA1.p.F266L missense)]
- exchange rate with Pos peptide: 10.2%

Binder: RAVRRMNTF (Synthetic 9-mer) [P17 9-mer neoantigen peptide RAVRRMNTF (MSMB-NOCA4 fusion)]
- exchange rate with Pos peptide: 9%

Binder: FPVGAEGTF (Synthetic 9-mer) [P27 9-mer neoantigen peptide FPVGAEGTF (FAM126B-ORC2 fusion)]
- exchange rate with Pos peptide: 6.4%

Binder: CPMSRLRLA (Synthetic 9-mer) [P46 9-mer neoantigen peptide CPMSRLRLA (TP53 (R213D) frameshift)]
- exchange rate with Pos peptide: 14.5%

Binder: RAKCKFSIL (Synthetic 9-mer) [P56 9-mer neoantigen peptide RAKCKFSIL (SPOP(F102C) missense)]
- exchange rate with Pos peptide: 38%

Binder: STRRAVRRM (Synthetic 9-mer) [P16 9-mer neoantigen peptide STRRAVRRM (MSMB-NCOA4 fusion)]
- exchange rate with Pos peptide: 6.2%

Binder: LMAQRLLLR (Synthetic 9-mer) [P97 9-mer neoantigen peptide LMAQRLLLR (FOXRED2-TXN2 fusion)]
- exchange rate with Pos peptide: 2.7%

Binder: IPVLTRWPL (Synthetic 9-mer) [P19 9-mer neoantigen peptide IPVLTRWPL (TMEM222-LOC644961 fusion)]
- exchange rate with Pos peptide: 14.5%

Binder: NSKMALNSL (Synthetic 9-mer) [P35 9-mer neoantigen peptide NSKMALNSL (TMPRSS2-ERG fusion)]
- exchange rate with Pos peptide: 13.7%

Binder: HVPKILSGK (Synthetic 9-mer) [P58 9-mer neoantigen peptide HVPKILSGK (AR (Q903H) missense)]
- exchange rate with Pos peptide: 5.3%

Binder: RVGNCKHLK (Synthetic 9-mer) [P82 9-mer neoantigen peptide RVGNCKHLK (AR-V7 splice variant)]
- exchange rate with Pos peptide: 1.4%

Binder: GVLRRLLCR (Synthetic 9-mer) [P37 9-mer neoantigen peptide GVLRRLLCR (TSTD1-F11R fusion)]
- exchange rate with Pos peptide: 3.3%

Binder: CYLGRQKRF (Synthetic 9-mer) [P61 9-mer neoantigen peptide CYLGRQKRF (FOXA1.p.R261G missense)]
- exchange rate with Pos peptide: 3.6%

Binder: QLIAMDSAI (Synthetic 9-mer) [P22 9-mer neoantigen peptide QLIAMDSAI (SLC45A3-ELK4 fusion)]
- exchange rate with Pos peptide: 3.9%

Binder: NMVENGCYL (Synthetic 9-mer) [P59 9-mer neoantigen peptide NMVENGCYL (FOXA1 (F254V) missense)]
- exchange rate with Pos peptide: 5.5%

Binder: IQYSCMGLM (Synthetic 9-mer) [P50 9-mer neoantigen peptide IQYSCMGLM (AR (W742C) missense)]
- exchange rate with Pos peptide: 4.7%
